From article PMC2770428 (2010)
Several values for one entry are separate records, joined by “and”; a condition that tells them apart may be missing. Equal values may be shown once.

Assays:
[1] = target: C4b (soluble) (Homo sapiens) (UniProt P0C0L4); conditions: cited from earlier work
[2] = target: C4b (surface-bound) (Homo sapiens) (UniProt P0C0L4); conditions: cited from earlier work
[3] = target: T1, C4b (on zymosan, average) C4b (Homo sapiens, UniProt P0C0L5); assay: 125I-C4BP equilibrium binding
T1 chain 1: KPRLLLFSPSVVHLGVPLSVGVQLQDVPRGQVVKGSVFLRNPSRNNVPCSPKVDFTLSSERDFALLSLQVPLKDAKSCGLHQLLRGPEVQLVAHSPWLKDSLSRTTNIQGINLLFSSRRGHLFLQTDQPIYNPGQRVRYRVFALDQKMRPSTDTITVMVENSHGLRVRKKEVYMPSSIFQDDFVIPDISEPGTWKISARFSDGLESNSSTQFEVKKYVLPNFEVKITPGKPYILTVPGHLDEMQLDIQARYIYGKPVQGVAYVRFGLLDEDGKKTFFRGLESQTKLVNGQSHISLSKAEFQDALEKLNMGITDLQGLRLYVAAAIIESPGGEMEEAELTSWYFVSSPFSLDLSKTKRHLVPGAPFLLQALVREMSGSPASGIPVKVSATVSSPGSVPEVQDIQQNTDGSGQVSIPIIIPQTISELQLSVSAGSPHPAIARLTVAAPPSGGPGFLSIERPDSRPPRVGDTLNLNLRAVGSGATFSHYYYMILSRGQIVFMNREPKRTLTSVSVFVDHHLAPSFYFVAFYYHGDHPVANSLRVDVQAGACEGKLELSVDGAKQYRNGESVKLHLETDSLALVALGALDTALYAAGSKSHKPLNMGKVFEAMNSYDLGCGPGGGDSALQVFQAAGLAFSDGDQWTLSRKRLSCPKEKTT
T1 chain 2: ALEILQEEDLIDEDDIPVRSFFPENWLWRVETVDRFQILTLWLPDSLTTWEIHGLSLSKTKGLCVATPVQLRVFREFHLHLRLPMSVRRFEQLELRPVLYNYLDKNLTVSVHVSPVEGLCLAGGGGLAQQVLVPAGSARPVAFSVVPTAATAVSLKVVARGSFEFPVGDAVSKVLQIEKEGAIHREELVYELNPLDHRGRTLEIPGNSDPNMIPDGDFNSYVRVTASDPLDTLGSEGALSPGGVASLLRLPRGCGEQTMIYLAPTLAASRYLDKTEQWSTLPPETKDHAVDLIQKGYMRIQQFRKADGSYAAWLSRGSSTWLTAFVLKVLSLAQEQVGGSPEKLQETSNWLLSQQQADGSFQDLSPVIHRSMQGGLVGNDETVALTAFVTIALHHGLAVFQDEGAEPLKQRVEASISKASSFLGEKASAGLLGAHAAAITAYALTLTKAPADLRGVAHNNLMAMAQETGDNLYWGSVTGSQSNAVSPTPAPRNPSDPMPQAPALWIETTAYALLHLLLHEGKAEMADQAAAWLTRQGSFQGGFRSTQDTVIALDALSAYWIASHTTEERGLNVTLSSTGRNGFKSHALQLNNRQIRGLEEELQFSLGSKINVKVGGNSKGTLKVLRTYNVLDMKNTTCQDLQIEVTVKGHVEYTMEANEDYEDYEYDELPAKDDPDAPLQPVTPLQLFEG
T1 chain 3: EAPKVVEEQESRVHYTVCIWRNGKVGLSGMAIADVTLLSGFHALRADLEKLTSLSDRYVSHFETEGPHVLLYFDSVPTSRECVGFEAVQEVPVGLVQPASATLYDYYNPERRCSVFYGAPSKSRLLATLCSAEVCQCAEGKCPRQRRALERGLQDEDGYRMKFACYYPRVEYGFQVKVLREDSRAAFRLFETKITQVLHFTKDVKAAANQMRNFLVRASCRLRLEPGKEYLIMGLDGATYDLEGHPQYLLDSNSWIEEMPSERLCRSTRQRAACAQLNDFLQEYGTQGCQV

[4] = target: C3bC4b complex (on zymosan, 54,000 C4b/Zym) C3b+C4b (Homo sapiens, UniProt P01024); assay: 125I-C4BP equilibrium binding
[5] = target: C3bC4b complex (on zymosan, average) C3b+C4b (Homo sapiens, UniProt P01024); assay: 125I-C4BP equilibrium binding
[6] = target: C3bC4b complex (on EMan, average) C3b+C4b (Homo sapiens, UniProt P01024); assay: 125I-C4BP equilibrium binding
C3bC4b complex (on EMan, average) C3b+C4b, sequence (P01024 23-1663, one chain of several): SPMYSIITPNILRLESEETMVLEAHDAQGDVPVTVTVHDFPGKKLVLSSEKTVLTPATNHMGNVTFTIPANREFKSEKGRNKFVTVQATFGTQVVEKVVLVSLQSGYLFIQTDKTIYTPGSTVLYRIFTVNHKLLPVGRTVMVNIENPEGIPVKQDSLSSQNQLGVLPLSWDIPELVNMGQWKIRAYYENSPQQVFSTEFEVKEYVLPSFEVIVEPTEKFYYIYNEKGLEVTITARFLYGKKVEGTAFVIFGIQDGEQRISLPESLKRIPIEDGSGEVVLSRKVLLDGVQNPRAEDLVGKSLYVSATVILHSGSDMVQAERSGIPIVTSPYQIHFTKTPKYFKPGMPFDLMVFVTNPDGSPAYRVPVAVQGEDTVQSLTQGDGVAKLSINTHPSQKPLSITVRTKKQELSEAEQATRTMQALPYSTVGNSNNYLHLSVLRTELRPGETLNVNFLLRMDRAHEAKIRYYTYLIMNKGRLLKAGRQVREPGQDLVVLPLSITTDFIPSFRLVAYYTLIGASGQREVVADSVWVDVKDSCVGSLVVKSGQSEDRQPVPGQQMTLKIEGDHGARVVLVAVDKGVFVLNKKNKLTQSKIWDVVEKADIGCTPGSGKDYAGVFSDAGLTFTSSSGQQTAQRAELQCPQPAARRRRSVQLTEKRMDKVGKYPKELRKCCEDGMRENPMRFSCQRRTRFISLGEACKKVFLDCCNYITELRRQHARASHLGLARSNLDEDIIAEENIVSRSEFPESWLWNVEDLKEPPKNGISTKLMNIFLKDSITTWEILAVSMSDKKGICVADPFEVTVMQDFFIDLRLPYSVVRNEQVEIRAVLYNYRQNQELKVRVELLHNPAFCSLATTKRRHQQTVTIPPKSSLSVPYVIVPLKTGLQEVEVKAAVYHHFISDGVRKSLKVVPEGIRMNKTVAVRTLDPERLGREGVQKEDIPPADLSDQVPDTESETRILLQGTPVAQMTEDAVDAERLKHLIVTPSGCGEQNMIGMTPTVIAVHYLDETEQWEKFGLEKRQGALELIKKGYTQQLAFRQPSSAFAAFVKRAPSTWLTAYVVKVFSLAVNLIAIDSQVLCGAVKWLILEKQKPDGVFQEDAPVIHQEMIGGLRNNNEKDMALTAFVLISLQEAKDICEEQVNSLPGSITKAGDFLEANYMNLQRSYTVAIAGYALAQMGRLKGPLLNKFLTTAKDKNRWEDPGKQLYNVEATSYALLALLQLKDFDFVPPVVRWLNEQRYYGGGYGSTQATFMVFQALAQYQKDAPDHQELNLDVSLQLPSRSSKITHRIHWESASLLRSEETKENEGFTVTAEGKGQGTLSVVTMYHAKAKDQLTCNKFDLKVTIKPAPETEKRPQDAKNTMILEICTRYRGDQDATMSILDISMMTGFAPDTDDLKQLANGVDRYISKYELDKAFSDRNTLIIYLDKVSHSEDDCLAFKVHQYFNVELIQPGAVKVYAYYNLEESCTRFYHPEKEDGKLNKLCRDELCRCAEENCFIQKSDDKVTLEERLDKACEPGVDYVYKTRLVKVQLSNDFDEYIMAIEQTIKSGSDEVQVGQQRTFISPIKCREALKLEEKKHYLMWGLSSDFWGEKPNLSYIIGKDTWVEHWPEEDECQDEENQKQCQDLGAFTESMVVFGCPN

C3bC4b complex (on zymosan, average) C3b+C4b, sequence (P01024 23-1663, one chain of several): as above
C3bC4b complex (on zymosan, 54,000 C4b/Zym) C3b+C4b, sequence (P01024 23-1663, one chain of several): as above

Molecule | Kd [1] | Kd [2] | Kd [3] | Kd [4] | Kd [5] | Kd [6]
C4BP (from UniProt P04003) | 80 nM | 5 nM and 2.2 nM |  |  |  | 
C4b-binding protein (C4BP) (protein) chain 1: NCGPPPTLSFAAPMDITLTETRFKTGTTLKYTCLPGYVRSHSTQTLTCNSDGEWVYNTFCIYKRCRHPGELRNGQVEIKTDLSFGSQIEFSCSEGFFLIGSTTSRCEVQDRGVGWSHPLPQCEIVKCKPPPDIRNGRHSGEENFYAYGFSVTYSCDPRFSLLGHASISCTVENETIGVWRPSPPTCEKITCRKPDVSHGEMVSGFGPIYNYKDTIVFKCQKGFVLRGSSVIHCDADSKWNPSPPACEPNSCINLPDIPHASWETYPRPTKEDVYVVGTVLRYRCHPGYKPTTDEPTTVICQKNLRWTPYQGCEALCCPEPKLNNGEITQHRKSRPANHCVYFYGDEISFSCHETSRFSAICQGDGTWSPRTPSCGDICNFPPKIAHGHYKQSSSYSFFKEEIIYECDKGYILVGQAKLSCSYSHWSAPAPQCKALCRKPELVNGRLSVDKDQYVEPENVTIQCDSGYGVVGPQSITCSGNRTWYPEVPKCEWETPEGCEQVLTGKRLMQCLPNPEDVKMALEVYKLSLEIEQLELQRDSARQSTLDKEL chain 2: SDAEHCPELPPVDNSIFVAKEVEGQILGTYVCIKGYHLVGKKTLFCNASKEWDNTTTECRLGHCPDPVLVNGEFSSSGPVNVSDKITFMCNDHYILKGSNRSQCLEDHTWAPPFPICKSRDCDPPGNPVHGYFEGNNFTLGSTISYYCEDRYYLVGVQEQQCVDGEWSSALPVCKLIQEAPKPECEKALLAFQESKNLCEAMENFMQQLKESGMTMEELKYSLELKKAELKAKLL |  |  | 0.95 nM | 0.62 nM | 0.9 nM | 2.1 nM
